The source of these data is article PMC3357048 (Nature structural & molecular biology, 2011).

Series [1] concerns the target sFcεRIα W87D (immobilised for SPR) (human) (UniProt P12319). As to the kind of experiment: SPR.
The series “crystal structure” concerns the molecule itself. As to the kind of experiment: crystal structure.

Molecule “Fcε3-4 (sub-fragment of IgE-Fc lacking the Cε2 domains) (from UniProt P01854 211-427) (domain or fragment)” came in with a dH in series [1] of -15.2 kcal/mol.

B1: human IgE-Fc (dimer of Cε2-Cε3-Cε4 domains) (domain or fragment)
chain: CSRDFTPPTVKILQSSCDGGGHFPPTIQLLCLVSGYTPGTINITWLEDGQVMDVDLSTASTTQEGELASTQSELTLSQKHWLSDRTYTCQVTYQGHTFEDSTKKCADSNPRGVSAYLSRPSPFDLFIRKSPTITCLVVDLAPSKGTVNLTWSRASGKPVNHSTRKEEKQRNGTLTVTSTLPVGTRDWIEGETYQCRVTHPHLPRALMRSTTKTSGPRAAPEVYAFATPEWPGSRDKRTLACLIQNFMPEDISVQWLHNEVQLPDARHSTTQPRKTKGSGFFVFSRLEVTRAEWEQKDEFICRAVHEAASPSQTVQRAVSVNPGL
modifications: N-linked high-mannose carbohydrate at Asn394
A word on the stoichiometry N: it is the number of molecules, sites or subunits per partner or assembly. As for B1, the “stoichiometry N” value in the series “crystal structure” was found to be 2.
